Consider two molecules from patent US20170044236A1 (GENERAL HOSPITAL, published 2017).

Test [1] has as its target T1, wild-type integrin αVβ3 on cells (K562-αVβ3, M21, HEK293T) (human, UniProt P06756 31-1048; P05106 27-788).
T1 construct: also called WT αVβ3; cellular αVβ3
T1 chain 1: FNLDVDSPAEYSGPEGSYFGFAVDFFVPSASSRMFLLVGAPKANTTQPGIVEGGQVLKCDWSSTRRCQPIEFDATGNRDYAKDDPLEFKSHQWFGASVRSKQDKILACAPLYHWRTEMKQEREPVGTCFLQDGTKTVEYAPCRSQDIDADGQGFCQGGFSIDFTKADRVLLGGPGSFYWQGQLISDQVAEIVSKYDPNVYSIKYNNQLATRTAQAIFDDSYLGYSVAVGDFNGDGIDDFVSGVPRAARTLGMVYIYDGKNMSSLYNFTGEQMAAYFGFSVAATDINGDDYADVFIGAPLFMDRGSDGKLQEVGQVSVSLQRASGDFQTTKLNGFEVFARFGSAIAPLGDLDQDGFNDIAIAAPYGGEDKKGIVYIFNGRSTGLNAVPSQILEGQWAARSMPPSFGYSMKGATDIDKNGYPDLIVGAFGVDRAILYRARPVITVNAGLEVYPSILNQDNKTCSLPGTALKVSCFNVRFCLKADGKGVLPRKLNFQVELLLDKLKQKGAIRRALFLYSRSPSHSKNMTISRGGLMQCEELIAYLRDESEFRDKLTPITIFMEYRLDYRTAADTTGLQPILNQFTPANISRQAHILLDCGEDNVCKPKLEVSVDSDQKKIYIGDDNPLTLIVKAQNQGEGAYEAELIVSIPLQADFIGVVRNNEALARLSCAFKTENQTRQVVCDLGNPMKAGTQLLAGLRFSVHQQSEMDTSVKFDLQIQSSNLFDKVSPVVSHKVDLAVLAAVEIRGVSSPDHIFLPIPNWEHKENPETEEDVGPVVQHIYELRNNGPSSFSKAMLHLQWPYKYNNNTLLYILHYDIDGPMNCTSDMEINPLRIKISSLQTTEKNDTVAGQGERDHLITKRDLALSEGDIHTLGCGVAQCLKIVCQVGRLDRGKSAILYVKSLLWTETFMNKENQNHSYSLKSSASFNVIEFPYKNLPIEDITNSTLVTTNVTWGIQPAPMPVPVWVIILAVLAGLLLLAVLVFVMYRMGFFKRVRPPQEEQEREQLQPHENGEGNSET
T1 chain 2: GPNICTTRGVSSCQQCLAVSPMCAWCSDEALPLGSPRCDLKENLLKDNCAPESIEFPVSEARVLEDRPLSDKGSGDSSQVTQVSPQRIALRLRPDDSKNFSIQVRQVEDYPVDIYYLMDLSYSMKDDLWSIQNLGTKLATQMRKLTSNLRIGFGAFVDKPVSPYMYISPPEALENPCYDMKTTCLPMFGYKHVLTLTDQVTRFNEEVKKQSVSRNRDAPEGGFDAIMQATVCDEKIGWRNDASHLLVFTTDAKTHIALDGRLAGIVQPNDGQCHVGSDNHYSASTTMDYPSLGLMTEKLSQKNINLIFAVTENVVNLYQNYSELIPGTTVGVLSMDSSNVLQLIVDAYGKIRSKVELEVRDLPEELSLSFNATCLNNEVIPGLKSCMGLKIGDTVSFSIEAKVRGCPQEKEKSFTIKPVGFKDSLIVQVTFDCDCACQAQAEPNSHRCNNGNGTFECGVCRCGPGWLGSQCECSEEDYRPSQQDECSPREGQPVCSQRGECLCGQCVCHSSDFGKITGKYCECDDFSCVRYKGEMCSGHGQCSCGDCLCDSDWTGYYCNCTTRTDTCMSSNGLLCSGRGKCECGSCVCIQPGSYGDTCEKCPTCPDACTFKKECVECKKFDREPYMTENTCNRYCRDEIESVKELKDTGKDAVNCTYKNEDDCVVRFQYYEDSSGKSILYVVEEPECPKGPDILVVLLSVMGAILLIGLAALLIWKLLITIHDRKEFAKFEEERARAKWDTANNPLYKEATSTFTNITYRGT
In words: flow cytometry, fluoresceinated fluid-phase FN10 on K562-αVβ3 cells. (In general: Flow cytometry measures light scatter and fluorescence of single cells or particles in a stream.)

Test [2] deals with T2, αVβ3(N339/S) on HEK293T cells (human, UniProt P06756 31-1048; P05106 27-788).
T2 construct: also called αVβ3^N/S; active αVβ3(N339/S)
T2 chain 1: T1 chain 1
T2 chain 2: T1 chain 2 with N339S
In words: flow cytometry, fluoresceinated fluid-phase FN10 on transfected HEK293T cells, Ca2+/Mg2+.

The target in test [3] is T2, αVβ3(N339/S) on HEK293T cells. In words: flow cytometry, fluorescein-tagged hFN10-G on cells.

Substitutions are numbered along the chain they refer to.

B1: wild-type 10th type-III RGD-domain of human fibronectin (wtFN10) (ligand)
chain: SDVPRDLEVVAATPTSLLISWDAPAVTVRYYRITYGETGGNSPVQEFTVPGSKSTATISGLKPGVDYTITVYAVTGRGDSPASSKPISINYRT
notes: Expressed in bacteria with an N-terminal His tag (S1417-T1509) and a thrombin cleavage site; also called wild-type FN10
B1: the “fold increase of binding (Mn2+ over Ca2+/Mg2+)” value in test [1] was found to be 10 fold. Also, the “fold increase of binding (N339/S over wild-type αVβ3)” value in test [2] came to 6 fold.

B2: hFN10-G (designed binder)
chain: SDVPRDLEVVAATPTSLLISWDAPAVTVRYYRITYGETGGNSPVQEFTVPGSKSTATISGLKPGVDYTITVYAVTPGRGDWNEGSKPISINY
notes: Fluorescein-tagged in the assay; also called mhFN10
With B2, the binding result in test [3] was “no binding”.
